Assay results as given in the supplement of paper PMC6757056.
± gives the standard deviation of the averaged measurements.

B1: library; a variant is named by its letters at N, in order (parent)
chain: GCUGUCACCGAGAAACUGUGAAGUAUAUCUUAAACCUGGGCACUUAAAAGAUAUAUGGAGUUAGUAGUGCAACCUGCUCGGUCUGAUGAGUCCNNNNNNGGACGAAACAGC

Tests used:
cyclic di-GMP [1] = variants of: B1; assay: normalized RNA/DNA level without ligand (relative to sTRSVctl = 100) (log10 (% of sTRSVctl)); HEK293T; ligand: cyclic di-GMP (c-di-GMP-II aptamer); higher = less ribozyme self-cleavage, higher mRNA level; details: reporter: mCherry (pCS4076), ligand present: no
In short: (§1)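 Ribozyme switch library plasmids with mCherry reporters (eGFP in certain ligand experiments) went into HEK293T cells at 4 µg per 6-well well. Where ligand was used, it was applied 1 h before transfection, and total RNA was extracted with EDTA 72 h later for reverse transcription, amplification, barcoding and sequencing. RNA level is the RNA-to-DNA read ratio normalized to a spiked-in non-cleaving sequence or to the leading sequences, then scaled and log-transformed. Scaling was ×100 with log10, the leading set comprised 25 sequences, and the cutoff was ≥100 DNA reads.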

cyclic di-GMP [2] = variants of: B1; assay: normalized RNA/DNA level with ligand (relative to sTRSVctl = 100) (log10 (% of sTRSVctl)); HEK293T; ligand: cyclic di-GMP (c-di-GMP-II aptamer); ligand concentration (+) RNA-Seq: 1 mM; higher = less ribozyme self-cleavage, higher mRNA level; details: reporter: mCherry (pCS4076), ligand present: yes
In short: as §1

Variant | normalized RNA/DNA level without ligand (log10) (cyclic di-GMP [1]) | normalized RNA/DNA level with ligand (log10) (cyclic di-GMP [2])
GGCCAU | 1.73 ± 0.03 | 1.84 ± 0.1
UCCAUU | 1.63 ± 0.023 | 1.81 ± 0.14
UACCUU | 1.637 ± 0.0055 | 1.82 ± 0.12
CCGAGG | 1.624 ± 0.0052 | 1.8 ± 0.071
GGGAUC | 1.66 ± 0.064 | 1.77 ± 0.09
AGGUUC | 1.75 ± 0.026 | 1.86 ± 0.14
GUAACU | 1.7 ± 0.055 | 1.82 ± 0.13
UCCGUG | 1.73 ± 0.033 | 1.85 ± 0.11
GAAAGC | 1.59 ± 0.029 | 1.72 ± 0.068
CACCAG | 1.74 ± 0.03 | 1.88 ± 0.11
UAAUUC | 1.73 ± 0.021 | 1.84 ± 0.099
UGAGUU | 1.67 ± 0.017 | 1.8 ± 0.091
AGCGCC | 1.7734 ± 0.0015 | 1.91 ± 0.082
AUCACU | 1.74 ± 0.057 | 1.88 ± 0.12
AUCUAU | 1.71 ± 0.073 | 1.79 ± 0.067
UAAAGG | 1.635 ± 0.0018 | 1.78 ± 0.088
GUCGAA | 1.49 ± 0.068 | 1.65 ± 0.11
GAAGUA | 1.64 ± 0.021 | 1.76 ± 0.061
GCCUAU | 1.662 ± 0.0027 | 1.85 ± 0.13

Variant | normalized RNA/DNA level without ligand (log10) (cyclic di-GMP [1]) | normalized RNA/DNA level with ligand (log10) (cyclic di-GMP [2])
UCUCUA | 1.666 ± 0.0017 | 1.82 ± 0.12
ACGGCC | 1.78 ± 0.063 | 1.87 ± 0.13
UUCCUC | 1.779 ± 0.013 | 1.91 ± 0.1
GGUACU | 1.71 ± 0.067 | 1.82 ± 0.16
CAAGGG | 1.6 ± 0.063 | 1.8 ± 0.072
GCCAGU | 1.604 ± 0.016 | 1.82 ± 0.098
ACUGAC | 1.611 ± 0.012 | 1.77 ± 0.12
AGUCUC | 1.764 ± 0.0076 | 1.88 ± 0.085
ACGACA | 1.52 ± 0.087 | 1.74 ± 0.085
UUUCGC | 1.789 ± 0.0088 | 1.89 ± 0.14
UACUGU | 1.6108 ± 0.00033 | 1.79 ± 0.15
GUUAAC | 1.67 ± 0.046 | 1.8 ± 0.037
UUGCGA | 1.778 ± 0.01 | 1.88 ± 0.076
GAGGAG | 1.752 ± 0.014 | 1.82 ± 0.081
CAUUUC | 1.67 ± 0.022 | 1.82 ± 0.14
CGACGG | 1.667 ± 0.013 | 1.8 ± 0.16
AUUUGU | 1.66 ± 0.017 | 1.85 ± 0.12
GCUGGG | 1.56 ± 0.029 | 1.71 ± 0.15
GGUAAG | 1.49 ± 0.12 | 1.65 ± 0.098

Variant | normalized RNA/DNA level without ligand (log10) (cyclic di-GMP [1]) | normalized RNA/DNA level with ligand (log10) (cyclic di-GMP [2])
AAGCGG | 1.81 ± 0.035 | 1.88 ± 0.069
GUAGUG | 1.744 ± 0.0031 | 1.81 ± 0.12
AUACAC | 1.71 ± 0.02 | 1.82 ± 0.081
GAACAC | 1.641 ± 0.014 | 1.78 ± 0.1
CGCCGA | 1.6 ± 0.065 | 1.81 ± 0.072
CCGUCA | 1.592 ± 0.009 | 1.79 ± 0.047
ACUUGA | 1.49 ± 0.11 | 1.72 ± 0.13
AGUCGC | 1.731 ± 0.0037 | 1.85 ± 0.12
UCAUGA | 1.57 ± 0.026 | 1.75 ± 0.12
GGCAGG | 1.82 ± 0.022 | 1.83 ± 0.042
UGUCGG | 1.74 ± 0.027 | 1.86 ± 0.077
ACUGUC | 1.63 ± 0.036 | 1.8 ± 0.15
CUUACU | 1.59 ± 0.079 | 1.79 ± 0.048
AGGCGG | 1.79 ± 0.026 | 1.88 ± 0.063
AACUGU | 1.7 ± 0.023 | 1.85 ± 0.1
UCCGGA | 1.606 ± 0.0039 | 1.8 ± 0.096
CAUAUC | 1.63 ± 0.069 | 1.79 ± 0.047
UGUUGC | 1.75 ± 0.026 | 1.89 ± 0.14
AAUCCU | 1.73 ± 0.073 | 1.86 ± 0.11
